Where a chain is given by its changes, count along the chain named.
B1: Fab 6 (Fab, V domains shown)
VH: EVQLVESGGGLVQPGGSLRLSCAASGFNVYYYYIHWVRQAPGKGLEWVASISPYYGYTSSYADSVKGRFTISADTSKNTAYLQMNSLRAEDTAVYYCARWSYDQSMSYKSGMDYWGQGTLVTVSS
VL: DIQMTQSPSSLSASVGDRVTITCRASQSVSSAVAWYQQKPGKAPKLLIYSASSLYSGVPSRFSGSRSGTDFTLTISSLQPEDFATYYCQQYSYSLVTFGQGTKVEIKR
B2: Fab 20 (Fab, V domains shown)
VH: EVQLVESGGGLVQPGGSLRLSCAASGFNISYSSIHWVRQAPGKGLEWVASIYSYSGYTSYADSVKGRFTISADTSKNTAYLQMNSLRAEDTAVYYCARSYWYHVGSWHYTGMDYWGQGTLVTVSS
VL: B1 VL with Y91S, Y93S, V96I

Target: T1, C-terminal domain of Zaire Ebola virus Nucleoprotein (NP^Ct) (Zaire Ebola virus, UniProt P18272 641-739)
T1 construct: also called Zaire NP^Ct; Zaire EBOV NP^Ct
Assay: ITC

T1 sequence (P18272 641-739, tags left off): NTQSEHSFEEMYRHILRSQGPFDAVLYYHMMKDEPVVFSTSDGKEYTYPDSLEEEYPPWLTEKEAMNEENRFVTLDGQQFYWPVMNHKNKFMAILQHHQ

Binder	Kd
B1	~5 nM
B2	~5 nM
